Target: recombinant human TfR1 (human) (UniProt P02786)
Experiment: SPR (Carterra LSA), IgG captured, TfR1 injected, 25 C

Sequence of recombinant human TfR1 (human) (P02786 89-760 limits assumed): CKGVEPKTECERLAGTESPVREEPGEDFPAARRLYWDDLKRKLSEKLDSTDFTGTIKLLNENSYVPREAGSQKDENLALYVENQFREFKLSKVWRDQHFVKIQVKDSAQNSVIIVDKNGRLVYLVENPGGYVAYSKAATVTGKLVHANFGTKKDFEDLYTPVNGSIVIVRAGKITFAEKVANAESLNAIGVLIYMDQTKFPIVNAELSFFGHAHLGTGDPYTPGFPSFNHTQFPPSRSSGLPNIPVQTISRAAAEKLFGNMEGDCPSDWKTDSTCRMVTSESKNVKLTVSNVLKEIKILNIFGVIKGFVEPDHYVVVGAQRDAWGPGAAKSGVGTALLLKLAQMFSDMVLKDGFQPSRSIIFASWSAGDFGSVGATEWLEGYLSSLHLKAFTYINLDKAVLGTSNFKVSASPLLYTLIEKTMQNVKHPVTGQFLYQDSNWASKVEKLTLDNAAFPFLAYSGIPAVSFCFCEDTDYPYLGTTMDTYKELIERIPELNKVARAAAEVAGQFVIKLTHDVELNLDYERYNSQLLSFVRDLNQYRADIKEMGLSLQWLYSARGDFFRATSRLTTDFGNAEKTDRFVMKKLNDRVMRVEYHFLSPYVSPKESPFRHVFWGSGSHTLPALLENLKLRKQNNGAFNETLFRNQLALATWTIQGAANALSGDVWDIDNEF

Substance: OKT9 mIgG (control) (antibody)
- Kd: 0.536 nM
- kon: 774000 M⁻¹ s⁻¹

From patent publication US20230346966A1
